Experiment [1] concerns the target T1, 原核表达的重组人Calcitonin蛋白 (PET28a-Calcitonin, 大肠杆菌BL21表达, Ni-NTA纯化) (human) (UniProt P01258).
T1 sequence (looked up): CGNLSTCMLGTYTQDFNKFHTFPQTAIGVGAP
In words: ELISA titer, as told in the summary of results.

The target of experiment [2] is T1, 原核表达的重组人Calcitonin蛋白 (PET28a-Calcitonin, 大肠杆菌BL21表达, Ni-NTA纯化) (human). Description: direct ELISA, purified antibody diluted 1:200 to 1:12800 on plates coated with purified Calcitonin protein (10 μg/ml), goat anti-mouse IgG-HRP, OD450.

B1: 小鼠抗人Calcitonin单克隆抗体 (杂交瘤细胞株7D5, CGMCC No.6919 产生) (antibody, part only; not given: light chain variable region, V domains shown, part only)
VH: LFCQTAGVHSEVQLQQSGPELVKPGTSVKMSCKASGYTFTSYVIHWVKQKPGQGLEWIGYINPYNVGTKYNEKFRDKATLTSDKSSNTAYMELSSLTSEDFAVYYCVRS
Regarding B1, the ELISA滴度 (dilution (1:x)) in experiment [1] was more than 100000; in experiment [2], more than 10000.
